Patent US20250369982A1 (INCENDIATHERAPEUTICS, published 2025)
Like-named read-outs stand apart in the source and are kept apart here.

T1: mouse DDR1 extracellular domain (mouse, UniProt Q03146 22-415)
T1 construct: extracellular domain
T1 sequence (looked up): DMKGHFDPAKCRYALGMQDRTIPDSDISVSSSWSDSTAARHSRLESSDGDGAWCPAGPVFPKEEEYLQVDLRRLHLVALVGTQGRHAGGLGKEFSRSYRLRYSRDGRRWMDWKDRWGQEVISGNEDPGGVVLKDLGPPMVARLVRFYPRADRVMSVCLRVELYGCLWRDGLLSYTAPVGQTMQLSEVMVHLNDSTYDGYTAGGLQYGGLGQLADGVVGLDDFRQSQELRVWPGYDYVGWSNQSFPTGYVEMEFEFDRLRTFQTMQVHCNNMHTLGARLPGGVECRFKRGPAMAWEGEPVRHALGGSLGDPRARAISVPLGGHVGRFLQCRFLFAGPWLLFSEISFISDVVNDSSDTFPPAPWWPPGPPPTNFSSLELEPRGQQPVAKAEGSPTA


How the values were obtained:
[1] = target: T1, mouse DDR1 extracellular domain; assay: SPR
[2] = target: T2, DDR1 on T47D breast cancer cells (human, UniProt Q08345 19-913); assay: cell-based or functional assay
[3] = target: T2, DDR1 on T47D breast cancer cells; assay: cell-based or functional assay; remark: listed apart in the source
[4] = target: DDR1 overexpressed on HEK293 cells (Homo sapiens (Human), UniProt Q08345 19-913); assay: cell-based or functional assay
[5] = target: T2, DDR1 on T47D breast cancer cells; assay: cell-based or functional assay; remark: listed apart in the source

T2 sequence (Q08345 19-913 limits assumed, stated change not applied): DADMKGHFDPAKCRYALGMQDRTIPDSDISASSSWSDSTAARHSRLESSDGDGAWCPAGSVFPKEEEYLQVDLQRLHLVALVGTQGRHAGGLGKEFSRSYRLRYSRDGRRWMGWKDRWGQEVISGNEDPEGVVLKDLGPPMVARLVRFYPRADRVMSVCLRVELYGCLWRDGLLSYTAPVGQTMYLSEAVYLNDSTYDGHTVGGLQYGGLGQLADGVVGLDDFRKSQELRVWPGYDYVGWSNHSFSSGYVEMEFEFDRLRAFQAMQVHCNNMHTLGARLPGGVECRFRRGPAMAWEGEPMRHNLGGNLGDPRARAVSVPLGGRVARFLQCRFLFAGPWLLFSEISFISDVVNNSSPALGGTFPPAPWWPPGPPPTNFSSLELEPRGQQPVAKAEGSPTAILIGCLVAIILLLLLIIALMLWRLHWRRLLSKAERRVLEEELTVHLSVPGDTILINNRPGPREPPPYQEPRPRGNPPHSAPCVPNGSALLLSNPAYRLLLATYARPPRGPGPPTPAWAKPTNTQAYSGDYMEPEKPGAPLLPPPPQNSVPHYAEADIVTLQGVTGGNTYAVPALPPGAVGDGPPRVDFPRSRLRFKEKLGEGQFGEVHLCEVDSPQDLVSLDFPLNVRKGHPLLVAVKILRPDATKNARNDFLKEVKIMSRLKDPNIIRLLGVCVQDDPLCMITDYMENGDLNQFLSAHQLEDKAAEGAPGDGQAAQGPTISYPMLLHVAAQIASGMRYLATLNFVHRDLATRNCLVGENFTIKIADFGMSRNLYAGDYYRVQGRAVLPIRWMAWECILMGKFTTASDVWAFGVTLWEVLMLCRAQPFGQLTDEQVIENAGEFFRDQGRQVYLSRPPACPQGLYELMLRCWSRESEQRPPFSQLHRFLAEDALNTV
Sequence of DDR1 overexpressed on HEK293 cells (Q08345 19-913 limits assumed): as the sequence (Q08345 19-913 limits assumed, stated change not applied) above

| Kd [1] [nM] | koff [1] [s⁻¹] | kon [1] [M⁻¹ s⁻¹] | IC50, inhibition of human collagen I (50 µg/ml)-induced DDR1 phosphorylation in T47D cells (pDDR1 normalised with vinculin), single experiment; unit taken from the axis [9H1] (µg/ml) [2] [µg/ml] | IC50 for inhibiting Collagen I-induced phosphorylation of DDR1 in T47D cells [3] [µg/mL] | IC50 for 9H1-WT inhibition of DDR1 OE cell adhesion to collagen I-coated plates [4] [µg/mL] | IC50, inhibition of human collagen I (50 µg/ml)-induced DDR1 phosphorylation in T47D cells (pDDR1 normalised with vinculin), single experiment; unit taken from the axis [9H1] (µg/ml) [5] [µg/ml] | Binder |
| --- | --- | --- | --- | --- | --- | --- | --- |
| 1.01 | 0.00106 | 1.05e+06 |  |  |  |  | mAb #33 inert IgG1 Fc (antibody, V domains shown, also called chimeric rabbit/human mAb #33 with inert IgG1 Fc; chimeric mAb #33) VH: QSVEESGGRLVTPGGSLTLTCTVSGFSLSSYDMSWVRQAPGKGLEWIGISWNSGFVDYASWAKGRFSISKTSTTVDLKITSPTTEDTATYFCARLGADDIYYFNLWGPGTLVTISS VL: ELVMTQTPASVEAAVGGTVTIKCQASETISSRLAWYQQKPGQPPKLLIYQASKLPSGVPSRFKGTGSGTEYTLTISDLECADAATYYCQGCYYGGGSFYDSAFGGGTEVVVKR |
| 17.6 |  |  | 0.09 | 0.05 to 0.06 | ~0.065 | 0.05 | mAb #9H1 WT IgG1 Fc (antibody, also called humanized mAb #9H1 with wt IgG1Fc) heavy: not shown light: DIQMTQSPSSVSASVGDRVTITCQASQSIGSVLAWYQQKPGKAPKLLISGVFDLASGVPSRFSGSGSGTDFTLTISSLQPEDFATYYCQYIPYGSSPFGGGTKVEIKRTVAAPSVFIFPPSDEQLKSGTASVVCLLNNFYPREAKVQWKVDNALQSGNSQESVTEQDSKDSTYSLSSTLTLSKADYEKHKVYACEVTHQGLSSPVTKSFNRGEC |
| 19 |  |  |  |  |  |  | mAb #9H1 inert IgG1 Fc (antibody, No sentence equates the two names; also called humanized mAb #9H1 with inert IgG1Fc; humanized DDR1-9 1 inert IgG1 Fc) heavy: QVQLVESGGRVVQPGRSLRLSCTASGFSLNRYYMLWVRQAPGKGLEWIGTISYGDTTYYASWAKGRFTISRDNSKNTLYLQMNSLRAEDTAVYYCARADTGDNGYLGLQLWGQGTLVTVSSASTKGPSVFPLAPSSKSTSGGTAALGCLVKDYFPEPVTVSWNSGALTSGVHTFPAVLQSSGLYSLSSVVTVPSSSLGTQTYICNVNHKPSNTKVDKRVEPKSCDKTHTCPPCPAPEAEGAPSVFLFPPKPKDTLMISRTPEVTCVVVDVSHEDPEVKFNWYVDGVEVHNAKTKPREEQYNSTYRVVSVLTVLHQDWLNGKEYKCKVSNKALPSSIEKTISKAKGQPREPQVYTLPPSREEMTKNQVSLTCLVKGFYPSDIAVEWESNGQPENNYKTTPPVLDSDGSFFLYSKLTVDKSRWQQGNVFSCSVMHEALHNHYTQKSLSLSPGK light: DIQMTQSPSSVSASVGDRVTITCQASQSIGSVLAWYQQKPGKAPKLLISGVFDLASGVPSRFSGSGSGTDFTLTISSLQPEDFATYYCQYIPYGSSPFGGGTKVEIKRTVAAPSVFIFPPSDEQLKSGTASVVCLLNNFYPREAKVQWKVDNALQSGNSQESVTEQDSKDSTYSLSSTLTLSKADYEKHKVYACEVTHQGLSSPVTKSFNRGEC |
